Patent US20250177530A1 (UNIVERSITY OF PITTSBURGH OF THE COMMONWEALTH SYSTEM OF …, published 2025)

T1: recombinant human ENPP1 extracellular domain fused with a His6-FLAG tag (human)
T1 construct: Expressed in Expi293 cells and purified on nickel resin; It was coated at 50 ng/well in the ELISAs and captured in biotinylated form on streptavidin biosensors in BLItz; also called ENPP1-His; rhENPP1
T1 sequence (P22413 98-925, looked up): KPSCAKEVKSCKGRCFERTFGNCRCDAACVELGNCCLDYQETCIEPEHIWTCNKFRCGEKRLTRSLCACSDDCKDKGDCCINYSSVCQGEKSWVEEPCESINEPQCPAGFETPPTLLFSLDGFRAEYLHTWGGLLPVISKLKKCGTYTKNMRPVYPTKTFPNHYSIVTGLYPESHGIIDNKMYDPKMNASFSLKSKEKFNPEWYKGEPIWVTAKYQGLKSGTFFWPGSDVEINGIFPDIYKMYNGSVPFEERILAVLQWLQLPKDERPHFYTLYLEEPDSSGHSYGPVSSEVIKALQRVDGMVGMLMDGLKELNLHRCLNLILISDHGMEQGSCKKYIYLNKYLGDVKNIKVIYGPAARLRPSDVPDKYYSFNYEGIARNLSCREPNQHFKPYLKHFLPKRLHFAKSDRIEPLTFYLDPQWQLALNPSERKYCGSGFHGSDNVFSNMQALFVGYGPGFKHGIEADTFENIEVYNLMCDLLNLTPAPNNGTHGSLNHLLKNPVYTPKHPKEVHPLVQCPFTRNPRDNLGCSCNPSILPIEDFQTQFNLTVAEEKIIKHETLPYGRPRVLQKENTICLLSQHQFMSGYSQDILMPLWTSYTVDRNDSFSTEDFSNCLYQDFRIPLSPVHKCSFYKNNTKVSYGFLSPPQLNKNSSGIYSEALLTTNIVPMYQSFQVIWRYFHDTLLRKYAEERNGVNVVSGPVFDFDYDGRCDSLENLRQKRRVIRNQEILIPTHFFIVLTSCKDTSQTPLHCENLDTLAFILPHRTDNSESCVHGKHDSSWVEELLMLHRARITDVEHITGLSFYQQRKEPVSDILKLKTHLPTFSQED


Key:
BSA = target: T2, BSA (UniProt P02769 25-607); experiment: ELISA on BSA
T2 construct: Specificity control antigen in ELISA

[1] = target: T1, recombinant human ENPP1 extracellular …; experiment: BLItz biolayer interferometry, biotinylated ENPP1 on streptavidin biosensor
Experimental: (§1) The affinity and avidity of the anti-hENPP1 antibody were detected by biolayer interferometry BLItz (ForteBio, Menlo Park, CA, USA). Briefly, DPBS was used to establish a baseline for 30 seconds, and streptavidin biosensor (ForteBio) was coated with 16.7 μg/mL recombinant ENPP1-Biotin for 2 minutes. […] Antigen-coated biosensors with PBS served as a reference control. The dissociation was monitored in DPBS for 4 minutes.

[2] = target: T1, recombinant human ENPP1 extracellular …; experiment: BLItz biolayer interferometry, biotinylated ENPP1 on a streptavidin biosensor
Experimental: as §1

[3] = target: T1, recombinant human ENPP1 extracellular …; experiment: ELISA, ENPP1-His coated at 50 ng/well, anti-FLAG-HRP detection
Experimental: (§2) The binding and specificity of Fab, scFv, and IgG1 to ENPP1 were analyzed by ELISA. Briefly, ENPP1-His protein was coated at 50 ng/well at 4° C. overnight and blocked with 5% milk for 2 hours at room temperature. After three times washing with PBST, they were incubated with 3-fold serially diluted Fab, scFv, or IgG1 for 1 hour at 37° C. For Fab and scFv detection via the FLAG tag present at the C-terminus, further incubation was performed with anti-FLAG M2-peroxidase (HRP) antibody (A8592, Sigma-Aldrich, St. Louis, MO, USA) for another 1 hour. For the IgG1, HRP-conjugated goat anti-human IgG1 Fc (Sigma-Aldrich, St. Louis, MO, USA) was used for detection.

[4] = target: T1, recombinant human ENPP1 extracellular …; experiment: BLItz biolayer interferometry, biotinylated ENPP1 on streptavidin biosensor (avidity, bivalent IgG1)
Experimental: as §1

[5] = target: T1, recombinant human ENPP1 extracellular …; experiment: ELISA, ENPP1-His coated at 50 ng/well, anti-human IgG1 Fc-HRP detection
Experimental: as §2

T2 sequence (P02769 25-607 limits assumed): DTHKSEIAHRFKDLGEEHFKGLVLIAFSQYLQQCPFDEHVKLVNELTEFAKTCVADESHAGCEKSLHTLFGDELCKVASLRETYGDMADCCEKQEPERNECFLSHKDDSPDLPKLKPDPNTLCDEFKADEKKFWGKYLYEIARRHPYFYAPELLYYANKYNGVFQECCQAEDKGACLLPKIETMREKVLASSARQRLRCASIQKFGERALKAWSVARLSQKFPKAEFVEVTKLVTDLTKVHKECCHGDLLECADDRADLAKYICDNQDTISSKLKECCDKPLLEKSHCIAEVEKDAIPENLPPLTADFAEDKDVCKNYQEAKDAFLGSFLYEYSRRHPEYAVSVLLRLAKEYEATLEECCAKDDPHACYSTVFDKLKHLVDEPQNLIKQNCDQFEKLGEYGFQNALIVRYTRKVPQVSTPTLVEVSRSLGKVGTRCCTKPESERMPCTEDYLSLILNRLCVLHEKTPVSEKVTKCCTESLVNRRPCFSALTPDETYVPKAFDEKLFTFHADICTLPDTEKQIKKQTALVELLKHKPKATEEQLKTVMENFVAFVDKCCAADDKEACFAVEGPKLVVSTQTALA

Binder	binding result (BSA)	Kd [1] [nM]	koff [1] [s⁻¹]	kon [1] [M⁻¹ s⁻¹]	koff [2] [s⁻¹]	kon [2] [M⁻¹ s⁻¹]	EC50 [3] [nM]	Kd [4] [nM]	koff [4] [s⁻¹]	kon [4] [M⁻¹ s⁻¹]	EC50 [5] [nM]
Fab 17 (Fab, V domains shown, Human Fab from a phage library, expressed in E. coli and purified on Ni-NTA; also called 17-Fab; Clone #1 (Fab)) VH: QVQLVESGGGLVKPGGSLRLSCAASGFTFSDYYMSWIRQAPGKGLEWVSYISSSGSTIYYADSVKGRFTISRDNAKNSLYLQMNSLRAEDTAVYYCAREVYYYDSSGYYTYYFDYWGQGTLVTVSS VL: DIQMTQSPSSLSASVGDRVTITCRASQSISSYLNWYQQKPGKAPKLLIYAASSLQSGVPSRFSGSGSGTDFTLTISSLQPEDAATYYCQQYDTFPLTFGGGTKVEIKR	no binding	61.4	0.0044	72000	0.00441	71800	13.9				
Fab 3G12 (Fab, V domains shown, Same heavy chain as Fab 17, different light chain; Expressed in E. coli and purified on Ni-NTA; also called 3G12-Fab; Clone #2 (Fab)) VH: QVQLVESGGGLVKPGGSLRLSCAASGFTFSDYYMSWIRQAPGKGLEWVSYISSSGSTIYYADSVKGRFTISRDNAKNSLYLQMNSLRAEDTAVYYCAREVYYYDSSGYYTYYFDYWGQGTLVTVSS VL: DIQMTQSPSSLSASVGDRVTITCRASQSISSYLNWYQQKPGKAPKLLIYAASSLQSGVPSRFSGSGSGTDFTLTISSLQPEDVAVYYCQQYYTSRITFGQGTKLEIKR	no binding	35.5	0.0018	52000	0.00184	51900	2.6				
IgG1 17 (antibody, V domains shown, also called hIgG1 17; IgG 17) VH: QVQLVESGGGLVKPGGSLRLSCAASGFTFSDYYMSWIRQAPGKGLEWVSYISSSGSTIYYADSVKGRFTISRDNAKNSLYLQMNSLRAEDTAVYYCAREVYYYDSSGYYTYYFDYWGQGTLVTVSS VL: DIQMTQSPSSLSASVGDRVTITCRASQSISSYLNWYQQKPGKAPKLLIYAASSLQSGVPSRFSGSGSGTDFTLTISSLQPEDAATYYCQQYDTFPLTFGGGTKVEIKR								6.7	0.0042	630000	0.14
IgG1 3G12 (antibody, V domains shown, Bivalent human IgG1 converted from Fab 3G12, expressed in Expi293 cells and purified on Protein A; also called hIgG1 3G12) VH: QVQLVESGGGLVKPGGSLRLSCAASGFTFSDYYMSWIRQAPGKGLEWVSYISSSGSTIYYADSVKGRFTISRDNAKNSLYLQMNSLRAEDTAVYYCAREVYYYDSSGYYTYYFDYWGQGTLVTVSS VL: DIQMTQSPSSLSASVGDRVTITCRASQSISSYLNWYQQKPGKAPKLLIYAASSLQSGVPSRFSGSGSGTDFTLTISSLQPEDVAVYYCQQYYTSRITFGQGTKLEIKR						516000		4.2	0.0021	520000	0.24
scFv 17 (scFv, VL-(G4S)3-VH orientation; Expressed in E. coli; also called scFv format antibody 17; not shown: C-terminal FLAG tag used for detection; The protein was purified on Ni-NTA) scFv: DIQMTQSPSSLSASVGDRVTITCRASQSISSYLNWYQQKPGKAPKLLIYAASSLQSGVPSRFSGSGSGTDFTLTISSLQPEDAATYYCQQYDTFPLTFGGGTKVEIKGGGGSGGGGSGGGGSQVQLVESGGGLVKPGGSLRLSCAASGFTFSDYYMSWIRQAPGKGLEWVSYISSSGSTIYYADSVKGRFTISRDNAKNSLYLQMNSLRAEDTAVYYCAREVYYYDSSGYYTYYFDYWGQGTLVTVSS							6.4				
scFv 3G12 (scFv, VL-(G4S)3-VH orientation; Expressed in E. coli; also called scFv format antibody 3G12; not shown: C-terminal FLAG tag used for detection; The protein was purified on Ni-NTA) scFv: DIQMTQSPSSLSASVGDRVTITCRASQSISSYLNWYQQKPGKAPKLLIYAASSLQSGVPSRFSGSGSGTDFTLTISSLQPEDVAVYYCQQYYTSRITFGQGTKLEIKGGGGSGGGGSGGGGSQVQLVESGGGLVKPGGSLRLSCAASGFTFSDYYMSWIRQAPGKGLEWVSYISSSGSTIYYADSVKGRFTISRDNAKNSLYLQMNSLRAEDTAVYYCAREVYYYDSSGYYTYYFDYWGQGTLVTVSS							52.2				
